B1: K1-18 IgG (antibody, V domains shown)
VH: EVQLVQSGAEVKKPGESLKISCKGSGYSFTNYWIGWVRQMPGKGLEWMGIIYPYDSDTRYSPSFEGQVTISADKSIRTAYLHWSSLKASDTAMYYCVRPRDGSYPYDAFDIWGQGTMVTVSS
VL: EIVLTQSPGTLSLSPGERATLSCRASQSVSNNYLAWYQQKPGQAPRLLIYGASSRATGIPDRFSGSGSGTDFTLTISRLEPEDFAVYYCQHCGSSLRAFGQGTKVEIKR
B2: K1-18 Fab (Fab, V domains shown)
VH: B1 VH
VL: B1 VL
B3: K1-70 IgG (antibody, V domains shown)
VH: EVQLVQSGAEVKKPGQSLKISCKASGYSLTDNWIGWVRQKPGKGLEWMGIIYPGDSDTRYSPSFQGQVTISADKSINTAYLQWSSLKASDTAIYYCVGLDWNYNPLRYWGPGTLVTVSS
VL: QSVLTQPPSVSAAPGQKVTISCSGSSSDIGSNYVSWYQQFPGTAPKLLIYDNNKRPSAIPDRFSGSKSGTSATLGITGLQTGDEADYYCGTWDSRLGIAVFGGGTQLTVLG

What was measured:
[1] = molecular target: TSHR260-alkaline phosphatase (TSHR260-AP) (human) (UniProt P05187); assay: TSHR260-AP bridge ELISA, full length TSHR on wells; 10 µg/mL, diluted in HBD
[2] = molecular target: TSHR260-alkaline phosphatase (TSHR260-AP) (human) (UniProt P05187); assay: TSHR260-AP bridge ELISA, full length TSHR on wells; 0.1 µg/mL, diluted in HBD
[3] = molecular target: TSHR260-alkaline phosphatase (TSHR260-AP) (human) (UniProt P05187); assay: TSHR260-AP bridge ELISA, full length TSHR on wells; 250 µg/mL, diluted in HBD
[4] = molecular target: TSHR260-alkaline phosphatase (TSHR260-AP) (human) (UniProt P05187); assay: TSHR260-AP bridge ELISA, full length TSHR on wells; 0.005 µg/mL, diluted in HBD
[5] = molecular target: TSHR260-alkaline phosphatase (TSHR260-AP) (human) (UniProt P05187); assay: TSHR260-AP bridge ELISA, full length TSHR on wells; 10 µg/mL, diluted in assay buffer
[6] = molecular target: TSHR260-alkaline phosphatase (TSHR260-AP) (human) (UniProt P05187); assay: TSHR260-AP bridge ELISA, full length TSHR on wells; 0.1 µg/mL, diluted in assay buffer
[7] = molecular target: TSHR260-alkaline phosphatase (TSHR260-AP) (human) (UniProt P05187); assay: TSHR260-AP bridge ELISA, full length TSHR on wells; 250 µg/mL, diluted in assay buffer
[8] = molecular target: TSHR260-alkaline phosphatase (TSHR260-AP) (human) (UniProt P05187); assay: TSHR260-AP bridge ELISA, full length TSHR on wells; 0.005 µg/mL, diluted in assay buffer
[9] = molecular target: T1, human TSH receptor (full length), coated on tubes (human, UniProt P16473 22-764); assay: competition with 125I-K1-18 IgG on TSHR coated tubes; 1 µg/mL, diluted in assay buffer
T1 construct: TSHR coated tubes as described in WO2004/050708A2; Exact preparation on the tubes is not detailed here; also called thyroid stimulating hormone receptor
Procedure: (§1) Binding inhibition assays were carried out using TSHR coated tubes as described in WO2004/050708A2. […] After aspiration, the tubes were washed and 100 μL of ¹²⁵I-labelled protein (5×10⁴ cpm) added and incubated for 1 hour at room temperature with shaking. The tubes were then aspirated, washed and counted in a gamma counter. Inhibition of labelled protein binding was calculated as 100×[1−(cpm bound in the presence of test material/cpm bound in the presence of control material)].

[10] = molecular target: T1, human TSH receptor (full length), …; assay: competition with 125I-K1-18 IgG on TSHR coated tubes; 3 µg/mL, diluted in assay buffer
Procedure: as §1

[11] = molecular target: T1, human TSH receptor (full length), …; assay: competition with 125I-K1-18 IgG on TSHR coated tubes; 10 µg/mL, diluted in assay buffer
Procedure: as §1

[12] = molecular target: T1, human TSH receptor (full length), …; assay: competition with 125I-K1-18 IgG on TSHR coated tubes; 30 µg/mL, diluted in assay buffer
Procedure: as §1

[13] = molecular target: T1, human TSH receptor (full length), …; assay: competition with 125I-K1-18 IgG on TSHR coated tubes; 0.1 µg/mL, diluted in assay buffer
Procedure: as §1

[14] = molecular target: T1, human TSH receptor (full length), …; assay: competition with 125I-K1-18 IgG on TSHR coated tubes; 0.3 µg/mL, diluted in assay buffer
Procedure: as §1

[15] = molecular target: T1, human TSH receptor (full length), …; assay: competition with 125I-K1-18 IgG on TSHR coated tubes; 1 µg/mL, diluted in HBD serum pool
Procedure: as §1

[16] = molecular target: T1, human TSH receptor (full length), …; assay: competition with 125I-K1-18 IgG on TSHR coated tubes; 100 µg/mL, diluted in assay buffer
Procedure: as §1

[17] = molecular target: T1, human TSH receptor (full length), …; assay: competition with 125I-K1-18 IgG on TSHR coated tubes; 3 µg/mL, diluted in HBD serum pool
Procedure: as §1

[18] = molecular target: T1, human TSH receptor (full length), …; assay: competition with 125I-K1-18 IgG on TSHR coated tubes; 0.01 µg/mL, diluted in assay buffer
Procedure: as §1

[19] = molecular target: T1, human TSH receptor (full length), …; assay: competition with 125I-K1-18 IgG on TSHR coated tubes; 0.03 µg/mL, diluted in assay buffer
Procedure: as §1

[20] = molecular target: T1, human TSH receptor (full length), …; assay: competition with 125I-K1-18 IgG on TSHR coated tubes; 10 µg/mL, diluted in HBD serum pool
Procedure: as §1

[21] = molecular target: T1, human TSH receptor (full length), …; assay: competition with 125I-K1-18 IgG on TSHR coated tubes; 30 µg/mL, diluted in HBD serum pool
Procedure: as §1

[22] = molecular target: T1, human TSH receptor (full length), …; assay: competition with 125I-K1-18 IgG on TSHR coated tubes; 0.001 µg/mL, diluted in assay buffer
Procedure: as §1

[23] = molecular target: T1, human TSH receptor (full length), …; assay: competition with 125I-K1-18 IgG on TSHR coated tubes; 0.003 µg/mL, diluted in assay buffer
Procedure: as §1

[24] = molecular target: T1, human TSH receptor (full length), …; assay: competition with 125I-K1-18 IgG on TSHR coated tubes; 0.1 µg/mL, diluted in HBD serum pool
Procedure: as §1

[25] = molecular target: T1, human TSH receptor (full length), …; assay: competition with 125I-K1-18 IgG on TSHR coated tubes; 0.3 µg/mL, diluted in HBD serum pool
Procedure: as §1

[26] = molecular target: T1, human TSH receptor (full length), …; assay: competition with 125I-K1-18 IgG on TSHR coated tubes; 100 µg/mL, diluted in HBD serum pool
Procedure: as §1

[27] = molecular target: T1, human TSH receptor (full length), …; assay: competition with 125I-K1-18 IgG on TSHR coated tubes; 0.01 µg/mL, diluted in HBD serum pool
Procedure: as §1

[28] = molecular target: T1, human TSH receptor (full length), …; assay: competition with 125I-K1-18 IgG on TSHR coated tubes; 0.03 µg/mL, diluted in HBD serum pool
Procedure: as §1

[29] = molecular target: T1, human TSH receptor (full length), …; assay: competition with 125I-K1-18 IgG on TSHR coated tubes; 0.001 µg/mL, diluted in HBD serum pool
Procedure: as §1

[30] = molecular target: T1, human TSH receptor (full length), …; assay: competition with 125I-K1-18 IgG on TSHR coated tubes; 0.003 µg/mL, diluted in HBD serum pool
Procedure: as §1

| Molecule | Inhibition of binding (%) [9] [%] | Inhibition of binding (%) [10] [%] | Inhibition of binding (%) [11] [%] | Inhibition of binding (%) [12] [%] | Inhibition of binding (%) [13] [%] | Inhibition of binding (%) [14] [%] | Inhibition of binding (%) [15] [%] | Inhibition of binding (%) [16] [%] | Inhibition of binding (%) [17] [%] | Inhibition of binding (%) [18] [%] | Inhibition of binding (%) [19] [%] | Inhibition of binding (%) [20] [%] | Inhibition of binding (%) [21] [%] | Inhibition of binding (%) [22] [%] | Inhibition of binding (%) [23] [%] | Inhibition of binding (%) [24] [%] | Inhibition of binding (%) [25] [%] | Inhibition of binding (%) [26] [%] | Inhibition of binding (%) [27] [%] | Inhibition of binding (%) [28] [%] | further results |
| --- | --- | --- | --- | --- | --- | --- | --- | --- | --- | --- | --- | --- | --- | --- | --- | --- | --- | --- | --- | --- | --- |
| 5C9 Fab | – | – | – | – | – | – | – | – | – | – | – | – | – | – | – | – | – | – | – | – | Mean absorbance at 405 nm (absorbance at 405 nm) [1]: -0.008; Mean absorbance at 405 nm (absorbance at 405 nm) [2]: -0.009; Mean absorbance at 405 nm (absorbance at 405 nm) [3]: -0.008; Mean absorbance at 405 nm (absorbance at 405 nm) [4]: -0.012; Mean absorbance at 405 nm (absorbance at 405 nm) [5]: 0.016; Mean absorbance at 405 nm (absorbance at 405 nm) [6]: -0.009; Mean absorbance at 405 nm (absorbance at 405 nm) [7]: 0.204; Mean absorbance at 405 nm (absorbance at 405 nm) [8]: 0 |
| B1 | 92.8 | 93 | 92.5 | 93.8 | 78.9 | 90.9 | 91.1 | 94.5 | 94 | 14.9 | 39.3 | 94 | 95.6 | 6.9 | 2.9 | 49.4 | 78.3 | 96.1 | 5.8 | 15.1 | Inhibition of binding (%) [29]: 2.7%; Inhibition of binding (%) [30]: -0.3% |
| B2 | 77.5 | 81.9 | 81.8 | 83 | 56.7 | 71.1 | 80.2 | 86.2 | 83.4 | 8.8 | 24.8 | 83 | 85 | -2.6 | 0.8 | 39 | 65.5 | 84.8 | 1.8 | 10.3 | Inhibition of binding (%) [29]: -1%; Inhibition of binding (%) [30]: 1% |
| B3 | 92 | 92.9 | 91.9 | 93.1 | 89.2 | 91.5 | 92.9 | 94.5 | 94.1 | 6.8 | 45.6 | 95.1 | 93.9 | -1.7 | 0.1 | 55.6 | 82.2 | 95.3 | 6.1 | 17.8 | Inhibition of binding (%) [29]: 0%; Inhibition of binding (%) [30]: 2.1% |

Reference: patent US20110300138A1 (published 2011)
